Test results from paper PMC3859194.

Tests used:
[1] = target: 6His-PopZ P146A (Caulobacter crescentus); test: SEC-MALLS
[2] = target: 6His-PopZΔ172–177 (Caulobacter crescentus); test: SEC-MALLS

Row | stoichiometry N [1] | stoichiometry N [2] | Substance
1 | 3 | – | 6His-PopZ P146A (natural protein)
2 | – | 6 | 6His-PopZΔ172–177 (domain or fragment)
